Test results taken from article PMC9723642.

Tests used:
Assay in all cases: EMSA
Conditions in all cases: EMSA: 10 mM Tris-HCl pH 7.5, 1 mM EDTA, 100 mM KCl, 0.1 mM DTT, 5% glycerol, 0.01 mg/mL BSA, 20 nM RNA, room temperature, 1 h; pull-down: RNA folded in 100 mM …
[1] = tested on: NCL* (PRMT1-methylated recombinant NCL) (Homo sapiens)
[2] = tested on: RGG peptide (Homo sapiens)
[3] = tested on: RGG* methylated peptide (Homo sapiens)
[4] = tested on: recombinant NCL (Homo sapiens)

## EBNA1
[1]
  Kd: 202 nM
[2]
  Kd: 0.154 nM
[3]
  Kd: 0.107 nM
[4]
  Kd: 306 nM
